{
  "source": "paper PMC12734981",
  "about": "“A CALB-like Cold-Active Lipolytic Enzyme from Pseudonocardia antarctica: Expression, Biochemical Characterization, and AlphaFold-Guided Dynamics” (Marine Drugs, 2025)",
  "key": {"[1]": {"substrate": "CCCC(=O)Oc1ccc([N+](=O)[O-])cc1", "test": "p-nitrophenol release, initial rates, nonlinear Michaelis-Menten fit", "assay_type": "biochemical, Pseudonocardia alni", "conditions": "100 mM Tris-HCl pH 7.4, 100 mM NaCl, 25 °C"}, "[2]": {"substrate": "CC(=O)Oc1ccc([N+](=O)[O-])cc1", "test": "p-nitrophenol release, initial rates, nonlinear Michaelis-Menten fit", "assay_type": "biochemical, Pseudonocardia alni", "conditions": "100 mM Tris-HCl pH 7.4, 100 mM NaCl, 25 °C"}},
  "data": [
    {"protein": "PanLipΔN (Pseudonocardia alni) (protein, Signal peptide (30 residues) and proline-rich putative propeptide (27 residues) removed; ~first 57 residues missing (methods say first 27 of full-length); starts at TLPDE by primer; ends KQNLLE; pET-28a(+) NdeI/XhoI, His tag; codon-optimized; E. coli SHuffle T7 Express; Ni-NTA purified; Precursor length printed as both 324 and 377 residues) TLPDETFGPVDRPGPALSVPPDQLDAAVRCSANATDADRDVALFVPGTTLTPEVNFGFNWFAALDDLGRPYCSVTLPNNAMTDTQIAAEYVVHAIRHVHGISGRKVDVLGHSQGGTEPRFALRFWPDLRGMVDDYVAFGTTNHGSIAINAALCTPATGCAEALWQQTLNSHYTQAMNSYQETFAGISYTQIYTRTDEFVQPNLDDSGTTSLHGGGGEISNVALQDVCLTEAASEHIAVGTYSPVAYALATDALDHDGPADPARVDRGVCTQVFMPGVDPLTFPTDYAATLGLIANQLALAPRVGSEPELRPYTLADDRQG", "values": [
      {"measurement": "Km", "setting": "[1]", "result": "2830 ± 1560", "unit": "µM"},
      {"measurement": "kcat", "setting": "[1]", "result": "9.7 ± 1.8", "unit": "s⁻¹"},
      {"measurement": "Km", "setting": "[2]", "result": "66.8 ± 18.5", "unit": "µM"},
      {"measurement": "kcat", "setting": "[2]", "result": "16.2 ± 1.8", "unit": "s⁻¹"}
    ]}
  ]
}
